# Results from the DeepSol protein solubility set.
# Experiment: soluble on expression in E. coli; label from the status in PepcDB or PDB records
row,Sequence,soluble on expression in E. coli
1,MGSDKIHHHHHHMKTVKTHITQLLHAMNKGIFEKEHPIALSLLSAISGESIFFLGPPGVAKSLIARRLKLAFDQSTAFEYLMSRFSTPDEIFGPVSISKLKDEDKYERIIEGYLPSATIVFLDEIWKAGPSIQNSLLTVINEKVYRNGQYTIQLPLKGLIAASNELPAQGEGLEALWDRFLIRYFIGNIEQEFAFDQMIASVNDMEAEIPTGLSITEEQYTDWRTQISQIKIHYTVFELIHSIKRQIEKYNIQKEEVPHSTLYISDRRWKKIISLLRTSAFLNETDTIRFSDCTLLLHCLWNEIEQIPIIEQMVSSALDECISHYLCGERTLEQKLSSIREDMKSEHSLRETKDPALQIVDTFYHQIERYPVAGNLLIFASDYQSLQKDTQKLFYVQRDKYRPVNWILKVYDHVRNRNISQSAIVSLKKGTRSVFINNQEYPLACNAGYDIAYPQEASLPFEFRFQEVIDLYHNRENELKRMTDIELTYCKEHLFMDDKQRNMVKQILNRQKEMLEIYQNEIREIAYTHGLENKEY,not soluble
2,MGSDKIHHHHHHMKTVLDVKNLSVDFAQDGRIVHAVRGVSFHVGKGETVALVGESGSGKSVTALSSVDLLPPSAQLNGSITYNGEQMIGASEAALRRVRGNDISFIFQEPMTSLNPLHTLERQITESLTLHQGLRGQAARDRIIQLLTKVGIRDPETRLGAYPHQLSGGQRQRVMIAMALANGPELLIADEPTTALDVTIQAQILDLLAELKRRERMSLLFITHDLAIVRRIADRVCVMQGGEIVEQGPTKTIFDNPQHPYTQKLLGAEPSGRPDPVPEDAKEILTTDKLRIWFPIQRGLLRRTVGHVKAVNEATLSVRQGETLGVVGESGSGKTTLALAIMRLIRSEGPIDFMDQHIPSLGKTELRTLRRDIQIVFQDPFGSLSPRMTIEQIVAEGLTVQGVNSTGRRRRVSEILEEVGLDPAMMHRYPHEFSGGQRQRIAIARAMILRPKLVVLDEPTSALDMTVQVQIVDLLRRLQRDHKLAFLFISHDLKVVRALSHKVMVMKQGDVVEAGRTEDLFANPRTTYTRELMKAAFGDASAA,not soluble
3,MGSDKIHHHHHHMKTWTPDLSRSDGPRYLAIADVIEMDLKSGRLLVGDRLPPQRDLAKRLAIDFTTVARGYVEAQKRGLVATHVGRGTFVTGGPEKERRGFVSEAALDARRMSVVDFSMNMPPEPDDPDLLARMQEGLSAVATNMIPLLRYQGFGGAGMDKEAAASWLSRRGLVPSQERIFVTPGAHPALLAIFGLLAKPGEMVLSENITYPGMRSIAAQLRLNLTGLPMDADGIIPGAFAEICETAKPKALYLNPTLQNPMTLTIPEKRREEICAVARKYHVPIVEDDAYGFIPLHSPAPLAAMAPDLTWHIGGLAKCIGAGLRLAYVVVPDTKAAWPFASAMRAASVMASPLSAALATRWIEDGTADSILRFIRTEAAARQALVAEVLPAGSYQSDPISFNIWLPLTNGWTRSTFGTHMRASGIGVVASDAFTVDGVAEEAVRVCLGGPIRRETLKGALEFMGHALEGSPQMAGTFF,not soluble
4,MGSDKIHHHHHHMKTYLVGGSVRDEILGLPVTDHDYVVVGVSPEEMVHLGFRPVGKDFPVFLHPQSQEQYALARTERKVSRGYKGFEVYASPEVTLQEDLARRDLTINAIAKDEYGNIIDPFGGIADLEAGVLRHIGPAFTEDPVRVLRTARFAARFGFHIAPETLALMNEMVHNGEVDALVSERVWQEIARGLMERHPSRMFYALRDCGALTRIMPEVDALFGVPQPPQHHPEIDTGVHVMMVIDYAASRNYSLQVRFAALTHDLGKGTTPPEEWPRHIGHEARSVRLVQGLCERINPPNEMRNLALLVARYHGDVHRAAELRPVTIANLLQGVDAYRKPERFEEFLQACACDFHGRPGYATRPYPQADRLREAFQAARSVDAGAIAKEMARNVSDPSRLPVAINTRVSETRIAEIRNRLGSLA,not soluble
5,MGSDKIHHHHHHMKVAIVHYWFVGMRGGEKVIEALCELYPQADIFTHVFVPEAVSDRIRRHRVTTSFINSLPRASSMYKSYLPLMPLALEHLDLSGYDLVISSESGPAKGIIPPPDALHVCYCHTPMRYIWNMYHDYRNGAGRLTKLLMPPLAHYLRMWDVSTASRVDSFIANSATVADRVRRYYRRDSVVIHPPVDTAVFTPVPASELGDYYLMAGELVAYKRPDLAVQAFNQIGRKLVVIGGGEMLNELKRIAGPNVTVMGSQPFEVLRHHYMHCRALIFPGEEDFGMVPVEAMAAGRPVIAFGKGGATETVVPGLSGLFFQAQEVEQIRSAILQLDDIEIDPAKISSHAARFGKQAFFDGFRSHIDQLLAAKAQATARNRG,not soluble
6,MGSDKIHHHHHHMKVAKFGGSSLASASQIKKVFDIVQADKQRKFIVVSAPGKRSGADTKVTDALIAYYKAYKSADEKGIHYYQNWIIERFREIYDELGLKSPVINQIAENINHLAQLDLDNVFTYDTFLAAGENNNAKLVADFFNHSGLPSRYVHPSDAGIMVSSDPGNARLLGGAYEHIKYLNELEETLIIPGFFGITKEGEVCTFSRGGSDITGSIIAAGVRAELYENFTDVNGIFAAHPGIVKNPAYISELTYREMRELAYSGFSVLHDEALVPAYRAHVPLVIKNTNNPDHPGTKIVVQRETKGSPVVGIASSSAFSSLYVSKYLMNREVGFGRKVLSVLENLGVRFEHMPTGIDDMSIIIRSRYLTQPISKALISNLTESLHPDEVYIDRDFSIITIVGEDMKEHVGVTARATAALSKQGISIAMLSQGSSEVSVMFIVKEKYEKEALKAIYSAFFD,not soluble
7,MGSDKIHHHHHHMKVLEGIRVLDFGRFIAGPFCAALLADFGADVIRIDRVGGSEDRFVAPVTSEGEGAFFLQVNRNKRSITLDLDSEEGQAVVRKLLLNTDVVVANMPPRTIAALGLDYESLRKVKPDIILTASSAFGADPAVRDRVGFDGVGQAMSGAVHLTGLPDHPMKSMVPVVDFSTALCCALGTMMALYERKSSGQGQEVGASLLHTALTLSSGSLIEEALRGLNRQATVNRSPTYGPSDIFRVKDGWIIAQVIGPAMFKRWTRMVGRPELLDDPRFADDAMRGEHGEVLSDIMSDWCAGRTREEALAILEGARIPGGPVNTPRQALEDEVVRASGAFHGVDYPGAAAQVPLVATPVSLSRTAPAIARRPPTAGEHTEEVLRDAGYAPGEIVALRERGVI,not soluble
8,MGSDKIHHHHHHMKVQYECLTCMANQCQRIVEMATQDMDIRRRAMILAAKLLAKEYNENAIPAIAGSLIFLELYKFLGNDDPFIEYKLKSEEMARKVADIIKRKLKLDFELAVKLAIIGNVIDFSVGFSPEDLEEEVEKMLKDKLYIDDSKELFEEVKRAENILYITDNVGEHYFDAILIEKIREISNAEVYIAGKEGPIINDATVEDLKRAGLEKLGKVISTGTRIVGVPLKLVSREFMEAFNKADVIIAKGQGNFETLSEINDSRIFFLLKAKCPAVARELKVPKGALVCMRNKFKL,soluble
9,MGSDKIHHHHHHMKWNWQQPDWPDFRWNSEALAVHEARFLQQSGIMIGVVKHLGDEDRTSVVLDVMTDEAMKTSQIEGELLNRDSVQSSLRREFGLETEARRIPPAERGIAEMMMALFRDFAAPLTEEVLGDWHRLVLSGRSDIDVVGRYREHEDAMQVVSGALHKPTVHFEAPPSREMAAEMARFLEWFAATGPGGATPLPGLTRSGLAHLYFVTIHPFEDGNGRIGRAIAEKALSQAIGQPSLIALSQTIQRRRSAYYDALEAANKSNEISDWLAYWAETVLDAQTHSLALIDFLLEKTRFHDRYRGKLNPRQEKVIARMFREGLDGFKGGLSAANYITIADTSRATATRDLQELVALGAMGQTGTLKATRYHLILDAVAGTNPPVNQA,not soluble
10,MGSDKIHHHHHHMKYTFNEEKAFDIVAIGRACIDLNAVEYNRPMEETMTFSKYVGGSPANIAIGSAKLGLKAGFIGKIPDDQHGRFIESYMRKTGVDTTQMIVDQDGHKAGLAFTEILSPEECSILMYRDDVADLYLEPSEVSEDYIANAKMLLVSGTALAKSPSREAVLKAVQYAKKHQVKVVFELDYRPYTWQSSDETAVYYSLVAEQSDIVIGTRDEFDVMENRTGGSNEESVNHLFGHSADLVVIKHGVEGSYAYSKSGEVFRAQAYKTKVLKTFGAGDSYASAFIYGLVSGKDIETALKYGSASASIVVSKHSSSEAMPTAEEIEQLIEAQS,not soluble
11,MGSDKIHHHHHHMLCQFSFKNFKSYKETTTFDFQATSIPEFSESLLKSEKADALLPVGVIYGPNGGGKTNLLLALSCLISTVVKPIYELEKAREKIIIQQKISAAPFYFNEISRKMPTEFEVYFRQGKNEYRYNLSICGDDIVEESLYWKAIGGKRTGMVFDREGAEITLGASINKASINRSVNPKMPYLSFLAINYDIPVIVEVQKWFESCIVKNYANPIADRQIMFSDDESYRKRIVRALNDVDIDVSGYRYDEENHELYTQRMIEGKIYELSFNDESDGTKKMIAALPVILLALQEGRLVIIDELDAKLHPKLLRYVISLFKNKNVNKKGAQLLFTSHDMTTMKNTVFRRDEIWFAAENERHESEIYSLYEIRRENNERVNSTAAYDKQYLEGRYGADPYLTNMLAGGEWL,not soluble
12,MGSDKIHHHHHHMLDKKTNIATDDPKAWLAQHGINEVECLVPDMNGVLRGKALPTAKFLKALEDRALYLPSSAFLVSIDGRYSGSIDEGFAYSDPDMRMVPDVSTLCLAPGAGAGKAYVFADAFHMDGRPWMASPRHVLRAVLDLYRQRGWRAVVAPEVEFYLTAPNPDPDRPLTAPVGANGRAEGVQHPYDMVALEEFEPVIRRVYDYAAAAGLPLDTLIHESGTAQLEINLLHGDALPLADQVLLFKRLTRQAAQQCGMHATFMAKPIAAQAGSSMHLHMSVVDEAGNALFASDDDADTEMFGHFIGGLQTYVPEIMPLFAPNVNSFRRIRPNHSAPANIEWSHDNRSCGLRVPAGGRSARRVENRLPGADSNPYLAIAGSLLAGYLGVQQKLARSAEASGNAYKIKSTLPKTMEEALDRFTACEPVRKLLGEDFSQTYLRVKSVELDLFQSVVTSWERDHLLLKV,not soluble
13,MGSDKIHHHHHHMLEIGFCTLEDQCPYLKDKRSRIEYKYIENCPKEINNELIKRGWRRFGRYFSRPICKDCDECLSLRILVNEYNFSRSERRVVNKNINTKVILRTPNLSNEHLFLYDKYHRFMEEKKNWKRYDLSFKQYYNLYVDGFMNFGYELAFYIEDKLVCVDLIDILEDGISSIYCFYDPDFSYFSLGKFSLLNEIQIAKKMNLDYIYLGYFVKKCQSLSYKADYTPNEILKGTKELFENEVLWEK,not soluble
14,MGSDKIHHHHHHMLELKHNFIFEDQPVAWGCMGQGPALVLIHGTPFSSQVWRRIAPLLSSHWTVYYYDMVGYGQSHKSAGQQVSLGGQDRLLAALLKEWKLTRPDILCHDFGGATALRGYFLQGLRYASLTLFDAVAISPWGSPFVAHVRKHQDAFTGLPKYAHDALLSAYLQGAAYQPLSEEALNIYMSPWQGEVGQAAFYRQIAQMDQCYTDDIEPLLTELDCPVNMLWGEQDEWIPLEVGKRLAHRLGDAPLQIVKNAGHLVQEDAPEAIVQSMYSLLLKRAGTSSSR,not soluble
15,MGSDKIHHHHHHMLETYALKNGAVFISDAHFLPKSPHLIHTLKELLSAKPPQVFFMGDIFHVLVGYLPLDKEQQKIIDLIHALSEISQVFYFEGNHDFSMRFVFNSKVMVFERQNQPVLFQYDNKRFLLAHGDLFITKAYEFYITQLTSTWARFFLTFLNLLSFKTLYPLFKKLIYQKPVRLWELEPKELQSFIEKRLKAYQNYIKDLNIGSIDGIIEGHFHLKSGAKIPLNTPIYCPLPSFYYEQSLFKVSSSVLEPSQNKDA,not soluble
16,MGSDKIHHHHHHMLIQIADLFTPAEAAQIRARLEAADWVDGKVTAGYQSAQVKHNRQLSEQHPLAQELGGLILQRLAANNLFMSAALPRKIFPPLFNRYEGGEAFGYHVDNALRPVPGTAERVRTDLSATLFFSEPDSYDGGELVVDDTYGPRTVKLPAGHMVLYPGTSLHKVTPVTRGARISAFFWLQSLVREDSQRSLLLEMDVAIQRLNQDTPGHASIVQLTGVYHNLLRRWTDV,not soluble
